This passage reports EC50 [nM] (cAMP) results from US20260001928A1 (CORTERIA PHARMACEUTICALS, priority 2022, published 2026).

For the assay, the target named is human corticotropin-releasing factor 2a (CRF2a receptor) (human), Q13324. The assay can be described thus: cell-based or functional assay.

*1 amine or outer side, *2 acyl side, *3 side chain or, on linkers, in order; H or OH if unused. Where no end group is shown, it is not given here. Side-chain parts run from the residue outwards. [ ]: non-standard residue; d: D form. The star is where a group is joined. C20 diacid = O=C(O)CCCCCCCCCCCCCCCCCCC(=O)*; γGlu = O=C(O)[C@H](CCC(=O)[*:2])N[*:1]; NMeI = CC[C@H](C)[C@H](NC)C(=O)O; AEEA = NCCOCCOCC(=O)O; Aib = CC(C)(N)C(=O)O

Sequence of human corticotropin-releasing factor 2a (CRF2a receptor) (human), Q13324 (Q13324 20-411): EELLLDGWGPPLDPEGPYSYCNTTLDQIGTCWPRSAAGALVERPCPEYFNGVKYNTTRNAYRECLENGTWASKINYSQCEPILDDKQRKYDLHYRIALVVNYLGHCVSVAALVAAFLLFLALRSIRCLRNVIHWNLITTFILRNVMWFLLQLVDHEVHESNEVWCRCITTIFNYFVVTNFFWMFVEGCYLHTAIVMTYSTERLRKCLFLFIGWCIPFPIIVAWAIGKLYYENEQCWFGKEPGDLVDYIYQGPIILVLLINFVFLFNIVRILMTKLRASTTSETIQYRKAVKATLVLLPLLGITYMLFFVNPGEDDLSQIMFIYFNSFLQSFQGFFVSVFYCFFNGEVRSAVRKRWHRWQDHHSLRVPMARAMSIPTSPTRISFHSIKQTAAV

B1: SEQ ID NO 230 (peptide)
peptide: Ac-IVLSLD[dV]PIKLK([AEEA-γGlu-C20 diacid])KILLEQEKQKKQREQAETN[Aib]QILAQV-NH2
SMILES: CC[C@H](C)[C@H](NC(C)=O)C(=O)N[C@H](C(=O)N[C@@H](CC(C)C)C(=O)N[C@@H](CO)C(=O)N[C@@H](CC(C)C)C(=O)N[C@@H](CC(=O)O)C(=O)N[C@@H](C(=O)N1CCC[C@H]1C(=O)N[C@H](C(=O)N[C@@H](CCCCN)C(=O)N[C@@H](CC(C)C)C(=O)N[C@@H](CCCCNC(=O)COCCOCCNC(=O)CC[C@H](NC(=O)CCCCCCCCCCCCCCCCCCC(=O)O)C(=O)O)C(=O)N[C@@H](CCCCN)C(=O)N[C@H](C(=O)N[C@@H](CC(C)C)C(=O)N[C@@H](CC(C)C)C(=O)N[C@@H](CCC(=O)O)C(=O)N[C@@H](CCC(N)=O)C(=O)N[C@@H](CCC(=O)O)C(=O)N[C@@H](CCCCN)C(=O)N[C@@H](CCC(N)=O)C(=O)N[C@@H](CCCCN)C(=O)N[C@@H](CCCCN)C(=O)N[C@@H](CCC(N)=O)C(=O)N[C@@H](CCCNC(=N)N)C(=O)N[C@@H](CCC(=O)O)C(=O)N[C@@H](CCC(N)=O)C(=O)N[C@@H](C)C(=O)N[C@@H](CCC(=O)O)C(=O)N[C@H](C(=O)N[C@@H](CC(N)=O)C(=O)NC(C)(C)C(=O)N[C@@H](CCC(N)=O)C(=O)N[C@H](C(=O)N[C@@H](CC(C)C)C(=O)N[C@@H](C)C(=O)N[C@@H](CCC(N)=O)C(=O)N[C@H](C(N)=O)C(C)C)[C@@H](C)CC)[C@@H](C)O)[C@@H](C)CC)[C@@H](C)CC)C(C)C)C(C)C
In turn, B1 gave an EC50 [nM] (cAMP) of 0.16 nM.

B2: SEQ ID NO 229 (peptide)
peptide: [NMeI]VLSLD[dV]PIGLK([γGlu-C20 diacid])KILLEQEKQKKQREQAETN[Aib]QILAQV-NH2
modifications: N-terminus assumed
SMILES: CC[C@H](C)[C@H](NC)C(=O)N[C@H](C(=O)N[C@@H](CC(C)C)C(=O)N[C@@H](CO)C(=O)N[C@@H](CC(C)C)C(=O)N[C@@H](CC(=O)O)C(=O)N[C@@H](C(=O)N1CCC[C@H]1C(=O)N[C@H](C(=O)NCC(=O)N[C@@H](CC(C)C)C(=O)N[C@@H](CCCCNC(=O)CC[C@H](NC(=O)CCCCCCCCCCCCCCCCCCC(=O)O)C(=O)O)C(=O)N[C@@H](CCCCN)C(=O)N[C@H](C(=O)N[C@@H](CC(C)C)C(=O)N[C@@H](CC(C)C)C(=O)N[C@@H](CCC(=O)O)C(=O)N[C@@H](CCC(N)=O)C(=O)N[C@@H](CCC(=O)O)C(=O)N[C@@H](CCCCN)C(=O)N[C@@H](CCC(N)=O)C(=O)N[C@@H](CCCCN)C(=O)N[C@@H](CCCCN)C(=O)N[C@@H](CCC(N)=O)C(=O)N[C@@H](CCCNC(=N)N)C(=O)N[C@@H](CCC(=O)O)C(=O)N[C@@H](CCC(N)=O)C(=O)N[C@@H](C)C(=O)N[C@@H](CCC(=O)O)C(=O)N[C@H](C(=O)N[C@@H](CC(N)=O)C(=O)NC(C)(C)C(=O)N[C@@H](CCC(N)=O)C(=O)N[C@H](C(=O)N[C@@H](CC(C)C)C(=O)N[C@@H](C)C(=O)N[C@@H](CCC(N)=O)C(=O)N[C@H](C(N)=O)C(C)C)[C@@H](C)CC)[C@@H](C)O)[C@@H](C)CC)[C@@H](C)CC)C(C)C)C(C)C
Molecule B2 came in with an EC50 [nM] (cAMP) of 0.11 nM.
